Measurements reported in the supplement of paper PMC9170038.

System: MS2 coat protein
Experiment: apparent KD of MS2 coat protein; higher = weaker reporter binding
Conditions: Eterna round: R107
In short: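 Apparent KD per design is the median of normalised cluster binding-curve fits. Designed RNA switches transcribed on-chip from Illumina sequencing clusters were titrated with SNAP-549-labelled MS2 coat protein in twofold steps from 0.7 or 1.5 nM to 3 µM, with 0.8–1.5 h down to 10–20 min per step. Buffer: 100 mM Tris-HCl pH 7.5, 80 mM KCl, 4 mM MgCl2, without or with constant ligand.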

[1] = input ligand: theophylline 20 uM
[2] = input ligand: theophylline 2 mM
[3] = input ligand: tryptophan 2.4 mM

Sequence | apparent KD of MS2 coat protein (input ligand: arginine 13.2 mM) [nM] | apparent KD of MS2 coat protein [1] [nM] | apparent KD of MS2 coat protein [2] [nM] | apparent KD of MS2 coat protein (input ligand: none) [nM] | apparent KD of MS2 coat protein [3] [nM]
CUACAUUUGUAGAAACCGGUCAACAAUAAUCGAGGACCGGUACGGCCGCCACUCGAUGUGUUAUACACAUGAGGAUCACCCAUGU [Tryptophan A 14] | 21.7 | 24.7 | 22.9 |  | 
CUACAUUUGUAGAAACCGGUCAACAUUAUUCGAGGACCGGUACGGCCGCCACUCGUAUAUUUUUAUACAUGAGGAUCACCCAUGU [Tryptophan A 7] | 14.4 | 14.4 | 13 |  | 
CUACAUUUGUAGAAACCGGUCACCGUUACUCGAGGACCGGUACGGCCGCCACUCGUGUCACGUGAUACAUGAGGAUCACCCAUGU [Tryptophan A 11] | 28.9 | 45.7 | 54.8 |  | 
CUAUAAGUACCGGUCCUCAGAUCCUCAUGACGAGGACCGGUACGGCCGCCACUCGAAACAUGAGGAUCACCCAUGUAAUAAUAUC [Brourdmod13] | 18.6 | 43.4 | 44.1 |  | 
CUAUAAGUAGCGGCCGCCACUUACUCAUGAGGUAACAACAUGAGGAUCACCCAUGUUUGAGGAUCAAGGACCGGGCUAUUUAUAG [AstrosSSTryB#9] | 24.7 | 32.6 | 31.5 | 28.7 | 17.6
CUAUAGAUAAGAAGGAGCGACAUGAGGAUCACCCAUGUCUACCACGUCGAAAGACGCUCAUGUCAGGUAGGUCGCUUAUUUAUAG [Astros-Eli-mod7] | 71.1 | 99.2 | 129 | 117 | 84.1
CUAUAUAGAAAACUAUAUAGAGUGGGUGAACGAGGACCGGUACGGCCGCCACUCGGACAUGAGGAUCACCCAUGUCCAUGUGAAA [AstrosExyTryA#25] | 13.1 | 13 | 25 | 14.8 | 29.4
CUAUAUGGAAACAUAUAGACGCAAAAGCGACGAGGACCGGUACGGCCGCCACUCGAAGAGUGGUGGACAUGAGGAUCACCCAUGU [Design 3 MOD] | 38.3 | 73.1 | 58.9 | 54.6 | 58.5
CUAUGCAGGUCGGCCGCCACUACACACAUGAGGAUCACCCAUGUAGUUACUGGGUGAAGUGGCAGUAGGACCGGGACCUGCACAC [Brourdmod18] | 150 | 458 | 619 | 436 | 431
CUCAUCCACGCGGCCGCCACUAUUUUUAGGUGUGGGUGUGACGUAUUACAUGAGGAUCACCCAUGUAGGACCGGGCGUGGAUGAG [Walrus] | 117 | 414 | 491 |  | 
CUCCCGUGAGCGGCCGCCACUGGAGGCUUUGCGCGACAUGAGGAUCACCCAUGUGUGCCCGGCGUUAGGACCGGGUUCGCGUGAG [#1 Same State - Tryptophan B Attempt #16 (HarryS)] | 8.8 | 13.9 | 11.2 | 12.3 | 11.2
CUGACGAGCUUUUUGUCAGGUUGUGUAGAUACCAGUUCUCUGGUGAACCCUUGGCAGCUAACAACAUGAGGAUCACCCAUGUGAU [theeternabot_exclusion_MS2_Theo_A_33] | 38.5 | 96.5 |  |  | 69.8
CUGCCACGAACGGCCGCCACUUACAUGAGGAUCACCCAUGUGCCUGCGCACAAAGAAUGUCAAGAAAGGACCGGGUUCAAAUAGU [theeternabot_exclusion_MS2_Trp_B_41] | 43.2 | 177 | 132 |  | 
CUGCCAUGCAGAGAUACCAGUGAGCCCAGAACAUGAGGAUCACCCAUGUACGCCGCAGACCACCCUUGGCAGCUCUGCAUGGCAG [#$@$%] | 12.7 | 16.8 | 6.75 | 12.9 | 10.9
CUGCCAUGCAGAGAUACCAGUGAGCCCAUAACAUGAGGAUCACCCAUGUACGCCGCAGACCACCCUUGGCAGCUCUGCAUGGCAG [&#$*@] | 21.7 | 18.4 | 11.4 | 17.4 | 16.6
CUGCCAUGCAGAGAUACCAGUGAGCUCAUAACAUGAGGAUCACCCAUGUACGCCGCAGAUCACCCUUGGCAGCUCUGCAUGGCAG [!#*@)] | 8.21 | 11.5 | 10.1 | 9.18 | 9.83
